The source of these data is article PMC1906764.

The target of one series is T1, PPT1 F85del, P50897.
T1 chain: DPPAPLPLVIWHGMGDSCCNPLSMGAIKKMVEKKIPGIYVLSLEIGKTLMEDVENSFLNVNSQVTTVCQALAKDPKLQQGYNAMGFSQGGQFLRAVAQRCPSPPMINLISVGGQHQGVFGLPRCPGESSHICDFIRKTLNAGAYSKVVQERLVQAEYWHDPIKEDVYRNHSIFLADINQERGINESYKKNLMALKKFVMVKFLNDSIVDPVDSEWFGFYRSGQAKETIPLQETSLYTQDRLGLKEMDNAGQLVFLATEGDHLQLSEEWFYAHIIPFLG
Nature of the series: GFP pull-down (co-immunoprecipitation with anti-GFP-agarose beads, anti-PPT1 immunoblot, quantified). Conditions: chain shown with the change; COS-1 cells, lysed 48 h post-transfection; single experiment; parent: est. 100; read off a plot.

A short description of series [1]: 35S-Cys pulse-chase, immunoprecipitation from COS-1 media. Conditions: glycan lost; control: wild type.
Series [2] can be described thus: immunofluorescence, LAMP-1 co-staining, transfected cells. Conditions: glycan lost; control: wild type.
Series [3] in a line: 4-MU-6S-Palm-βGlc fluorometric assay, COS-1 lysates. Conditions: glycan lost; control: wild type.

B1: palmitoyl protein thioesterase 1 (PPT1), wild type, P50897 F85del (protein)
chain: DPPAPLPLVIWHGMGDSCCNPLSMGAIKKMVEKKIPGIYVLSLEIGKTLMEDVENSFLNVNSQVTTVCQALAKDPKLQQGYNAMGFSQGGQFLRAVAQRCPSPPMINLISVGGQHQGVFGLPRCPGESSHICDFIRKTLNAGAYSKVVQERLVQAEYWHDPIKEDVYRNHSIFLADINQERGINESYKKNLMALKKFVMVKFLNDSIVDPVDSEWFGFYRSGQAKETIPLQETSLYTQDRLGLKEMDNAGQLVFLATEGDHLQLSEEWFYAHIIPFLG
Regarding B1, the percent of parent with PPT1 F85del, P50897 is 150 % of WT.

B2: palmitoyl protein thioesterase 1 (PPT1): S214A (protein)
parent chain: MASPGCLWLLAVALLPWTCASRALQHLDPPAPLPLVIWHGMGDSCCNPLSMGAIKKMVEKKIPGIYVLSLEIGKTLMEDVENSFFLNVNSQVTTVCQALAKDPKLQQGYNAMGFSQGGQFLRAVAQRCPSPPMINLISVGGQHQGVFGLPRCPGESSHICDFIRKTLNAGAYSKVVQERLVQAEYWHDPIKEDVYRNHSIFLADINQERGINESYKKNLMALKKFVMVKFLNDSIVDPVDSEWFGFYRSGQAKETIPLQETSLYTQDRLGLKEMDNAGQLVFLATEGDHLQLSEEWFYAHIIPFLG
On to B2, for which the expression_or_secretion result in series [1] was “no change”. Moreover, the localisation_or_trafficking entry in series [2] was “no change”. Moreover, in series [3], the enzymatic activity, percent of wt was 31%.

B3: palmitoyl protein thioesterase 1 (PPT1): S199A (protein)
parent chain: MASPGCLWLLAVALLPWTCASRALQHLDPPAPLPLVIWHGMGDSCCNPLSMGAIKKMVEKKIPGIYVLSLEIGKTLMEDVENSFFLNVNSQVTTVCQALAKDPKLQQGYNAMGFSQGGQFLRAVAQRCPSPPMINLISVGGQHQGVFGLPRCPGESSHICDFIRKTLNAGAYSKVVQERLVQAEYWHDPIKEDVYRNHSIFLADINQERGINESYKKNLMALKKFVMVKFLNDSIVDPVDSEWFGFYRSGQAKETIPLQETSLYTQDRLGLKEMDNAGQLVFLATEGDHLQLSEEWFYAHIIPFLG
With B3, the expression_or_secretion result in series [1] was “abolishes”. In addition, the localisation_or_trafficking entry in series [2] is given as “decreases”.

B4: palmitoyl protein thioesterase 1 (PPT1): S234A (protein)
parent chain: MASPGCLWLLAVALLPWTCASRALQHLDPPAPLPLVIWHGMGDSCCNPLSMGAIKKMVEKKIPGIYVLSLEIGKTLMEDVENSFFLNVNSQVTTVCQALAKDPKLQQGYNAMGFSQGGQFLRAVAQRCPSPPMINLISVGGQHQGVFGLPRCPGESSHICDFIRKTLNAGAYSKVVQERLVQAEYWHDPIKEDVYRNHSIFLADINQERGINESYKKNLMALKKFVMVKFLNDSIVDPVDSEWFGFYRSGQAKETIPLQETSLYTQDRLGLKEMDNAGQLVFLATEGDHLQLSEEWFYAHIIPFLG
For B4, the expression_or_secretion entry in series [1] is on record as “decreases”. The localisation_or_trafficking result in series [2] is on record as “decreases”.

B5: palmitoyl protein thioesterase 1 (PPT1): S199A + S214A (protein)
parent chain: MASPGCLWLLAVALLPWTCASRALQHLDPPAPLPLVIWHGMGDSCCNPLSMGAIKKMVEKKIPGIYVLSLEIGKTLMEDVENSFFLNVNSQVTTVCQALAKDPKLQQGYNAMGFSQGGQFLRAVAQRCPSPPMINLISVGGQHQGVFGLPRCPGESSHICDFIRKTLNAGAYSKVVQERLVQAEYWHDPIKEDVYRNHSIFLADINQERGINESYKKNLMALKKFVMVKFLNDSIVDPVDSEWFGFYRSGQAKETIPLQETSLYTQDRLGLKEMDNAGQLVFLATEGDHLQLSEEWFYAHIIPFLG
As to B5, the expression_or_secretion entry in series [1] was “abolishes”. Further, in series [3], the “enzymatic_activity, percent_of_wt” value is listed as “decreases”.
